Experiments:
VWF-A1 domain = molecular target: T1, VWF-A1 domain (Homo sapiens, UniProt P04275); assay: BLItz bio-layer interferometry, immobilized VWF-A1 domain; type: binding; conditions: scFv-A1 20, 40 and 100 µg ml^-1
T1 construct: coated with purified full length VWF or isolated A1 domain
Experimental: Bio-layer Interferometry was performed on a BIItz System (Pall Forte Bio, USA). Protein-A biosensors were hydrated for 30 minutes in PBS-Tween (0.05%) and loaded with VWF-A1 domain (130 µg ml^-1). Remaining binding sites were blocked by exposure to a polyclonal mouse IgG for 5 min. Sequential adhesion of scFv-A1 at 0, 20, 40 and 100 µg ml^-1 was monitored for 5 min per concentration. Real time visualisation of binding interactions between scFv A1 and full length VWF/A1 domain was performed using the BLItz Pro software. Traces were manually baseline aligned and corrected for control binding (0 µg ml^-1 scFv-A1).

[1] = molecular target: T2, denatured full length VWF (Homo sapiens, UniProt P04275); assay: Western blot of denatured VWF probed with scFv A1; type: binding; conditions: scFv A1 1 µg ml^-1; SDS-PAGE denatured VWF
T2 construct: Denatured full length VWF (Mybiosource, USA) was electrophoresed; purchased Mybiosource
Experimental: Denatured full length VWF (Mybiosource, USA) was electrophoresed at 0.1, 10, 100 ng and 1 µg using 5% SDS-Polyacrylamide gel at 125 V for 90 min. The protein was transferred onto PVDF membrane at 90V for 90 min followed by incubation with 1 µg ml^-1 scFv A1 overnight and the membrane was probed with horse-radish peroxidase (HRP)-conjugated detection antibody (1:2500, Sigma).
Later, the membrane was stripped and reprobed with 1 µg ml^-1 polyclonal sheep anti-VWF antibody (Abcam), followed by donkey anti-sheep HRP-conjugated secondary antibody (1:2500, R&D Systems, USA). Chemiluminescent detection of protein bands was done using ECL Western Blotting Substrate (ThermoFisher) and visualisation using a ChemiDoc Touch Imaging system (Bio-Rad, UK).

[2] = test system: VWF-GPIbα bond strength (platelets rolling on VWF-collagen III); assay: Platelet rolling velocity on collagen III bound VWF in stenotic or straight microfluidic channels; type: cell-based, human; conditions: scFv A1
From the text: In-house designed PDMS microfluidic chips (FIG. 1A) contained channels of 52 µm height with a footprint of 300 µm x 46 mm (used in FIG. 1) or 300 µm x 17 mm. Selected channels incorporated a semi-circular stenotic section of various lengths (600 µm, 1000 µm or 2000 µm diameter), creating 80% lumen reduction. Chips were manufactured as previously reported (Westein et al. Proceedings of the National Academy of Sciences of the United States of America. 2013 Jan 22;110(4):1357-62). The produced PDMS chips were sealed with cover slips by hydrophobic interaction and coated with collagen by perfusion of collagen solution followed by static incubation at RT for at least 1 hr. Channels were rinsed with PBS and blocked with 2% BSA. Wall shear rates of the input flow for these microchannels were approximated from volumetric flow rates by using the equation, γ = 6Q/wh2. […]
For experiments measuring rolling velocities, anti αllbβ3 antibody (abciximab; 20 µg ml^-1)-treated whole blood containing 0.5 µg ml^-1 DiOC6 was drawn over a collagen type III-coated surface. […] 10 second video clips of rolling platelets were recorded in the green fluorescent channel using an Olympus IX81 microscope system. Platelet rolling velocities were calculated using Diatrack v3.04 large scale particle tracking software (Vallotton et al. Microsc Microanal. 2013 Apr;19(2):451-60).

VWF-platelet interaction = assay: Platelet-VWF adhesion on collagen III in stenotic microfluidic channels (SRG versus constant shear); type: cell-based, human
From the text: In-house designed PDMS microfluidic chips (FIG. 1A) contained channels of 52 µm height with a footprint of 300 µm x 46 mm (used in FIG. 1) or 300 µm x 17 mm. Selected channels incorporated a semi-circular stenotic section of various lengths (600 µm, 1000 µm or 2000 µm diameter), creating 80% lumen reduction. Chips were manufactured as previously reported (Westein et al. Proceedings of the National Academy of Sciences of the United States of America. 2013 Jan 22;110(4):1357-62). The produced PDMS chips were sealed with cover slips by hydrophobic interaction and coated with collagen by perfusion of collagen solution followed by static incubation at RT for at least 1 hr. Channels were rinsed with PBS and blocked with 2% BSA. Wall shear rates of the input flow for these microchannels were approximated from volumetric flow rates by using the equation, γ = 6Q/wh2. Herein, γ is the wall shear rate (s^-1), Q the volumetric flow rate (mls^-1), w the channel with (cm) and h the channel height (cm).
Citrated whole blood was incubated with DiOC6 (0.5 µg ml^-1) (Sigma-Aldrich Co, St. Louis, MO, USA) and drawn through microfluidic channels by a programmable syringe pump (Legato 130, KD Scientific, USA). Time-lapse z-stack images of platelet deposition were captured in multiple track, resonant scanning mode, using a Nikon A1R confocal microscope system. Platelet deposition was recorded over time (2 frames per minute) for up to 20 minutes and quantified in ImageJ using a Z-projection of the acquired signal.
For experiments measuring rolling velocities, anti αllbβ3 antibody (abciximab; 20 µg ml^-1)-treated whole blood containing 0.5 µg ml^-1 DiOC6 was drawn over a collagen type III-coated surface. Where indicated, blood was incubated with 30 µM aspirin (Sigma Aldrich, USA) and 300 µM 2-MeSAMP (Sigma-Aldrich Co, St. Louis, MO, USA) prior to blood perfusion. 10 second video clips of rolling platelets were recorded in the green fluorescent channel using an Olympus IX81 microscope system. Platelet rolling velocities were calculated using Diatrack v3.04 large scale particle tracking software (Vallotton et al. Microsc Microanal. 2013 Apr;19(2):451-60).

B1: scFv A1: single chain antibody combining variable heavy chain of mAb CR1 with variable light chain of mAb CR2; VH SEQ ID NO: 11, VL SEQ ID NO: 10 (antibody, V domains shown)
VH: QVQLQQPGAELVRPGASVKLSCKASGYSFTNYWMSWVKQRPGQGLEWIGMIHPSDSDTRLNQKFKDKATLTVDKSSSTAYMQLSSPTSEDSAGLLLCKKFEGWLPVLLGPRHHSHSLLS
VL: DIELTQSPASLAVSLGQSYRASCKSVSTSGYSYMHWNQQKPGQPPRLLIYLVSNLESGVPARFSGSGSGTDFTLNIHPVEEEDAATYYCQHIRELTRSEGDQAEINR
modifications: scFv linker; Mouse
VWF-A1 domain
  Binding to immobilized VWF-A1 domain: did not observe any binding
[1]
  Complex formation with denatured VWF: did not show any complex formation
[2]; areas other than the stenosis apex
  Effect on platelet rolling velocities: largely unaffected
[2]; stenosis apex, control 4.41±0.1, p=0.038
  Platelet rolling velocity: 4.6±0.1 µm s^-1
VWF-platelet interaction; scFv A1 5 µg ml^-1, stenosis apex, control 3934±892, p=0.7932
  Platelet adhesion: 3805±783 platelets/mm^2
VWF-platelet interaction; scFv A1 5 µg ml^-1, stenosis inlet, control 6187±1097, p=0.0013
  Platelet-VWF adhesion: 5158±1032 platelets/mm^2
VWF-platelet interaction; scFv A1 5 µg ml^-1, stenosis outlet, control 5042±1167, p=0.07
  Platelet adhesion: 4475±1199 platelets/mm^2
VWF-platelet interaction; scFv A1 5 µg ml^-1, straight section, constant shear, control 2047±232, p=0.0195
  Platelet deposition: 3096±690 platelets/mm^2
VWF-platelet interaction; scFv A1, areas of SRGs and constant shear
  Relative amount of VWF per platelet deposited on aggregates: not reduced
